Assay results published in publication PMC8559680, “Dynamics in Fip1 regulate eukaryotic mRNA 3′ end processing” (Genes & Development, 2021).

B1: Fip1_(226) (Fip1 residues 1–226), purified from E. coli (domain or fragment, yeast, UniProt P45976 1-226, looked up)
chain: MSSSEDEDDKFLYGSDSELALPSSKRSRDDEADAGASSNPDIVKRQKFDSPVEETPATARDDRSDEDIYSDSSDDDSDSDLEVIISLGPDPTRLDAKLLDSYSTAATSSSKDVISVATDVSNTITKTSDERLITEGEANQGVTATTVKATESDGNVPKAMTGSIDLDKEGIFDSVGITTIDPEVLKEKPWRQPGANLSDYFNYGFNEFTWMEYLHRQEKLQQDYNP
notes: Isotopically labelled (15N, 13C, 2H) where it is the observed species in NMR; cloned in pET28a+; also called Fip226; source: E. coli BL21 Star, purified (Ni-NTA, TEV cleavage, Superdex 75); not shown: His tag, N-terminal, cleaved

Experiments:
[1] = target: B1; assay: NMR titration; 15N-labelled Yth1 construct with unlabelled Fip1_(226), equimolar, 75 µM; chemical shift perturbations and line broadening; 700 MHz, 298 K, 50 mM HEPES (pH 7.4), 150 mM NaCl; settings: both partners purified
[2] = target: Yth1ZF4 (Yth1 zinc finger 4) (yeast) (UniProt Q06102); assay: ITC; MicroCal iTC200, 25°C, 50 mM HEPES (pH 7.4), 150 mM NaCl; single class-binding site model
[3] = target: T1, CPFΔFip1 (recombinant CPF lacking Fip1; Pap1 also absent) (yeast, UniProt Q06632 1-1357; P42841 1-465; Q06102 1-208; Q12102 1-859; Q06224 1-779; P35728 …); assay: mass photometry; Refeyn One iSCAT; samples diluted to 100 nM in 50 mM HEPES (pH 7.4), 150 mM NaCl; settings: both partners purified
T1 construct: Cft1, yeast; as m20; Pfs2, yeast, untagged; as m19; Yth1, yeast, untagged; as m12; Cft2, yeast; as m21; Ysh1, yeast; as m22; Mpe1, yeast; as m23; Pta1, yeast; as m24; Ssu72, yeast; as m25; Pti1, yeast; as m26; Glc7, yeast; as m27; as m28; Swd2, yeast; as m29; Twelve subunits: Fip1 was omitted from the CPFcore construct and Pap1, though co-expressed, was absent from the purified complex; source: …

| binding result [1] | Kd [2] | binding result [3] | Binder |
| --- | --- | --- | --- |
| binds |  |  | Yth1_(ZF45C) (Yth1 residues 118–208) (domain or fragment, yeast, UniProt Q06102 118-208, looked up, Yth1, yeast, zinc fingers 4 and 5 and the rest of the C-terminal region, residues 118–208; 15N- or 13C,15N-labelled where it is the observed species in NMR; cloned in pGEX6P-2; also called entire C-terminal half of Yth1; source: E. coli BL21 Star, purified (GST resin, 3C cleavage, Superdex 75); not shown: GST, N-terminal, cleaved) ASKIPKCENYEMGFCPLGSSCPRRHIKKVFCQRYMTGFCPLGKDECDMEHPQFIIPDEGSKLRIKRDDEINTRKMDEEKERRLNAIINGEV |
|  | 240 nM | binds | B1 |
